This is an account of results in patent US20230279091A1 (published 2023).

The labels stand for the following.
B1: recombinant human TNFβ (ligand, UniProt P01374 35-205, looked up)
chain: LPGVGLTPSAAQTARQHPKMHLAHSTLKPAAHLIGDPSKQNSLLWRANTDRAFLQDGFSLSNNSLLVPTSGIYFVYSQVVFSGKAYSPKATSSPLYLAHEVQLFSSQYPFHVPLLSSQKMVYPGLQEPWLHSMYHGAAFQLTQGDQLSTHTDGIPHLVLSPSTVFFGAFAL
B2: humanized scFv 16-22-H05-sc02 (STR, structural graft) (scFv)
scFv: MDIQMTQSPSSLSASVGDRVTIKCQASQSIFSGLAWYQQKPGKAPKLLIYGASKLASGVPSRFSGSGSGTEFTLTISGLQPADFATYYCQSYYYSSSSSDGSYAFGGGTKLTVLGGGGGSGGGGSGGGGSGGGGSEVQLVESGGGLVQPGGSLRLSCKASGIDFNNYGIGWVRQAPGKGLEWITYIYPGFAITNFANSVKGRFTISSDNSKNTVYLQMNSLRAEDTAVYYCARDPVYATSSGYFDLWGQGTLVTVSS
notes: also called 16-22-H5-sc02; 16-22-H04-sc02 [sic]
B3: humanized scFv 16-22-H05-sc04 (CDR/STR) (scFv)
scFv: B2 scFv with K23T
notes: also called 16-22-05-sc04

Assay [1] has as its target B2. The assay is described as follows: competition ELISA: unlabeled TNFβ against biotinylated TNFα on coated scFv. The procedure:
(§1) For this purpose, the scFvs were coated on a 96-well Maxisorp ELISA plate at a concentration of 1 pg/ml. […] To control precision of the response, the dose-response curves were analyzed in duplicate.

The target of assay [2] is B3. The assay is described as above. The procedure:
as §1

The target of assay [3] is T1, recombinant human TNFα (human, UniProt P01375 77-233).
T1 construct: also called tumor necrosis factor alpha; TNFαtrimer
As to the kind of experiment: inhibition ELISA, blocking of biotinylated TNFα binding to coated TNFRI-Fc. An excerpt:
For the first inhibition ELISA, the extracellular domain of TNFRI fused to the Fc region of human IgG (R&D Systems, Cat. No. 372-RI) was coated on a 96-well Maxisorp ELISA at a concentration of 0.5 pg/ml. […] All subsequent steps were identical for both assays.
(In an ELISA, binding on a coated surface is turned into a signal by an enzyme label.)

Assay [4] addresses T1, recombinant human TNFα. The assay is described as follows: cell-based or functional assay.

Changes are numbered by the printed parent chain.

T1 sequence (P01375 77-233 limits assumed): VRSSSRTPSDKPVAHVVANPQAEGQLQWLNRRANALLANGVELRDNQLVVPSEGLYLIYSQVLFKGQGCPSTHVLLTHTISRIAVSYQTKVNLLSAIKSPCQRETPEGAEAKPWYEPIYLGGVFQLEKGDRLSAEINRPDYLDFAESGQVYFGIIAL

For the molecule B1, the IC50 in assay [1] and in assay [2] was above 1.25 ng/mL each time.

With B2, in the assay with recombinant human TNFα [3], the “rel. IC50 (IC50 Infliximab/IC50 scFv, ng/mL)” value worked out at 3.5 ratio and the “rel. IC90 (IC90 Infliximab/IC90 scFv, ng/mL)” value amounted to 2.4 ratio. Besides, in the assay with recombinant human TNFα [4], the “L929 assay, rel. IC50” value is 13.1 ratio IC50 Infliximab (ng/ml)/IC50 scFv (ng/mL) and the “L929 assay, rel. IC90” value was 12.6 ratio IC90 Infliximab (ng/ml)/IC90 scFv (ng/mL).

As for B3, in the assay with recombinant human TNFα [3], the “rel. IC50 (IC50 Infliximab/IC50 scFv, ng/mL)” value amounted to 2.8 ratio and the “rel. IC90 (IC90 Infliximab/IC90 scFv, ng/mL)” value is 2.1 ratio. Also, in the assay with recombinant human TNFα [4], the “L929 assay, rel. IC50” value is 14.6 ratio IC50 Infliximab (ng/ml)/IC50 scFv (ng/mL) and the “L929 assay, rel. IC90” value was 13.1 ratio IC90 Infliximab (ng/ml)/IC90 scFv (ng/mL).
